Km, kcat and kcat/Km data for three proteins are collected here from article PMC9080259, “Dual-cycle immobilization to reuse both enzyme and support by reblossoming enzyme–inorganic hybrid nanoflowers” (RSC Advances, 2018).

What is called Km is the concentration of substrate that gives half-maximal velocity. For orientation: kcat means the maximal rate divided by the concentration of active sites. By kcat/Km is commonly meant the second-order rate constant that governs catalysis at low substrate concentration.

Holding throughout (assay): purified protein
Substrate in data set [1]: CCOC(=O)[C@H](CCCNC(=N)N)NC(=O)c1ccccc1
The conditions noted are these: free enzyme, 37 °C, pH not told, substrate of the kinetics taken from the activity assay.

Substrate in data set [2]: CC(=O)Oc1ccc([N+](=O)[O-])cc1
Format: biochemical, Thermomyces lanuginosus. The conditions noted are these: free enzyme, PBS 100 mM pH 6.5, 37 °C, substrate of the kinetics taken from the activity assay.

Substrate in data set [3]: CC(=O)Oc1ccc([N+](=O)[O-])cc1
Type of data set: biochemical, Moesziomyces antarcticus. The conditions noted are these: free enzyme, PBS 100 mM pH 6.5, 37 °C, substrate of the kinetics taken from the activity assay.

B1: Papain (Carica papaya) (protein)
chain: IPEYVDWRQKGAVTPVKNQGSCGSCWAFSAVVTIEGIIKIRTGNLNEYSEQELLDCDRRSYGCNGGYPWSALQLVAQYGIHYRNTYPYEGVQRYCRSREKGPYAAKTDGVRQVQPYNEGALLYSIANQPVSVVLEAAGKDFQLYRGGIFVGPCGNKVDHAVAAVGYGPNYILIKNSWGTGWGENGYIRIKRGTGNSYGVCGLYTSSFYPVKN
Turning to B1, in data set [1], the Km is 1.01 ± 0.05 mM, the kcat turned out to be 2.67 s⁻¹ and the kcat/Km is 2670 M⁻¹ s⁻¹.

B2: Lipase from Thermomyces lanuginosus (TLL) (Thermomyces lanuginosus) (protein)
chain: EVSQDLFNQFNLFAQYSAAAYCGKNNDAPAGTNITCTGNACPEVEKADATFLYSFEDSGVGDVTGFLALDNTNKLIVLSFRGSRSIENWIGNLNFDLKEINDICSGCRGHDGFTSSWRSVADTLRQKVEDAVREHPDYRVVFTGHSLGGALATVAGADLRGNGYDIDVFSYGAPRVGNRAFAEFLTVQTGGTLYRITHTNDIVPRLPPREFGYSHSSPEYWIKSGTLVPVTRNDIVKIEGIDATGGNNQPNIPDIPAHLWYFGLIGTCL
For B2, in data set [2], the Km is recorded as 16.58 ± 0.793 mM, the turnover number (kcat) worked out at 29.3 ± 1.26 s⁻¹ and the specificity constant (kcat/Km) amounted to 1770 ± 8 M⁻¹ s⁻¹.

B3: Lipase B from Candida antarctica (CALB) (Moesziomyces antarcticus) (protein)
chain: LPSGSDPAFSQPKSVLDAGLTCQGASPSSVSKPILLVPGTGTTGPQSFDSNWIPLSTQLGYTPCWISPPPFMLNDTQVNTEYMVNAITALYAGSGNNKLPVLTWSQGGLVAQWGLTFFPSIRSKVDRLMAFAPDYKGTVLAGPLDALAVSAPSVWQQTTGSALTTALRNAGGLTQIVPTTNLYSATDEIVQPQVSNSPLDSSYLFNGKNVQAQAVCGPLFVIDHAGSLTSQFSYVVGRSALRSTTGQARSADYGITDCNPLPANDLTPEQKVAAAALLAPAAAAIVAGPKQNCEPDLMPYARPFAVGKRTCSGIVTP
With B3, in data set [3], the Km stood at 6.36 ± 0.321 mM, the catalytic constant (kcat) was determined as 56.8 ± 2.73 s⁻¹ and the kcat/Km turned out to be 8920 ± 23 M⁻¹ s⁻¹.
